Laboratory results reported in patent publication US7521477B2, “Vitamin C derivatives with peptide, preparation method thereof and composition comprising the same” (Peptron Co., Ltd., priority 2003, dated 2009).
pIC50: −log10 of the molar value. Numbered stars: 1 amine (or outer) side, 2 acyl side, 3 side chain; on linkers, the order of the positions; unused ones are H or OH. Ends that are not written are not given here. * marks the point of attachment. Suc = O=C(CCC(=O)[*:2])[*:1]; Propyl = CCC*

Experiments:
[1] = Color change test (storage stability in solution); type: physicochemical; design: key: −: no or very slight noticeable change (colorless or light yellow); +: slight; ++: moderate; +++: extreme; details: 50 mM in 50 mM potassium phosphate pH 7.0, 40° C.
Procedure: The compounds I to IV synthesized in Example 4 and vitamin C (Sigma Aldrich) were independently dissolved in 50 mM potassium phosphate of pH 7.0 at a concentration of 50 mM, and stored in an incubator at 40° C. for three weeks. Thereafter, the compounds and vitamin C were evaluated for color change according to the standard criteria, and the results are given in Table 2, below.

male Hartley guinea pigs [2] = test: Phototoxicity test
Procedure: Each of the test samples was applied to the skin of guinea pigs, and the guinea pigs were exposed to ultraviolet A (UVA) radiation. Then, potency to induce phototoxicity was evaluated. Induction of phototoxicity, which is an abnormal response of the skin to a photo-stimulus such as ultraviolet or visible light, occurs non-immunologically by a chemical. Unlike the allergic response, the degree of phototoxicity can be expected by sufficient intensity of radiation and drugs.
CP and 8-MOP were prepared at a final concentration of 10% in DMSO and then diluted to 1%. Each of guinea pigs was fixed on a fixing plate, and the skin of the guinea pig was covered with 50 μl of each of the test samples. Then, the right area of the skin was not exposed to UV light, and the left area of the skin was exposed to UVA light (320 to 380 nm) of 15 J/cm^2, which was irradiated in a distance of about 10 cm for about 2 hrs. 24 hrs, 48 hr and 72 hrs after UVA irradiation, photosensitization in the treatment group was evaluated in comparison with that in the positive control groups.

mushroom tyrosinase = mushroom tyrosinase (Agaricus bisporus, UniProt C7FF04); test: Inhibitory activity against tyrosinase; type: biochemical, mushrooms; details: tyrosine substrate, pH 6.8, 37° C.; read-out: IC50 (compound concentration to inhibit 50% of tyrosinase activity)
Procedure: Tyrosinase was purchased from the Sigma Company, which was isolated from mushrooms and purified. Tyrosin as a substrate for the purified mushroom tyrosinase was prepared by dissolving in 0.05 M potassium phosphate buffer (pH 6.8) in an amount of 0.3 mg/ml. The compounds and vitamin C were dissolved in distilled water at a concentration of 10 mM, and diluted with distilled water to suitable concentrations.
0.5 ml of the tyrosine solution and 0.5 ml of a buffer were put into a test tube, and 0.5 ml of the diluted compound or vitamin C was added to the test tube. After each test tube was incubated in an incubator at 37° C. for 10 min, 0.05 ml of tyrosinase (2,000 U/ml) was added to each test tube, followed by incubation at 37° C. for 10 min. A sample added with 0.5 ml distilled water instead of the compound was used as a control. Thereafter, each test tube was rapidly cooled on ice to terminate the reaction. Absorbance at 475 nm was measured using a spectrophotometer. Inhibition rate against tyrosinase was calculated using the measured absorbance according to the following Equation 1, and IC50 values (compound concentration to inhibit 50% of tyrosinase activity) were then determined. Inhibition rate (%)=(A−B)/A×100 Equation 1
wherein, A is an absorbance at 475 nm of a sample not containing an inhibitor, and B is an absorbance at 475 nm of a sample containing an inhibitor.

male Hartley guinea pigs [3] = test: Photosensitization test (Adjuvant & Strip method); type: in vivo
Procedure: A photosensitization test for the compound II-4 was carried out according to an Adjuvant & Strip method using male Hartley guinea pigs. After four sites to be sensitized were selected at the cervical and dorsal skin of the guinea pigs, an emulsion of WFI and FCA were intradermally injected to each of the selected sites. The sensitized sites were stripped only in a degree of inducing weak erythema, and covered with 0.01 PBS (excipient group), the compound II-4 (test group) and CP (chlorpromazine; positive control group) in a non-occlusive manner. After two hours, long wave-length UV light of about 10 J/cm^2 was irradiated to the test substance-applied sites. 24 hrs, 48 hrs and 72 hrs after UV irradiation, signs of photosensitization were investigated.

[4] = Areas exposed to UVA, applied concentration 0.1%
[5] = Areas exposed to UVA, applied concentration 1%
[6] = Areas exposed to UVA, applied concentration 10%
[7] = Areas not exposed to UVA, applied concentration 0.1%
[8] = Areas not exposed to UVA, applied concentration 1%
[9] = Areas not exposed to UVA, applied concentration 10%

mushroom tyrosinase, sequence (C7FF04 1-392): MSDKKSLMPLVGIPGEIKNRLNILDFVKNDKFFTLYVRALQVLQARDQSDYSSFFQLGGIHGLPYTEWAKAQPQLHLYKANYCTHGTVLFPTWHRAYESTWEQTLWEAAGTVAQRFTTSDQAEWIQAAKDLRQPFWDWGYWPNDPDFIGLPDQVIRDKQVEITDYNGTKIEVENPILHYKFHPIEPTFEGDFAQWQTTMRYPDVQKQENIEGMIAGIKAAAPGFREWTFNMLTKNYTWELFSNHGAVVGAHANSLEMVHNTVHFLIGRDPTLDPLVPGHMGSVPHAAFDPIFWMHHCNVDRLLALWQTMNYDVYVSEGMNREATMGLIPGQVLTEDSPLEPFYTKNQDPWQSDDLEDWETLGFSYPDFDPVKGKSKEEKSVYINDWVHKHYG

Compound | Color change After 1 week [1] | Color change After 2 weeks [1] | Color change After 3 weeks [1] | further results
O=C1O[C@H]([C@@H](O)CO)C(O)=C1O [Vitamin C, ascorbic acid] | + | +++ |  | 
5,6-di(succinyl-lysyl-threonyl-threonyl-lysyl-serine(SEQ ID NO:1))ascorbic acid ({ascorbic acid-Suc}-KTTKS; also: two succinyl-linked peptides on one ascorbic acid) [III-4] | − | + | + | 
NCCCCC(NC(=O)C(Cc1cnc[nH]1)NC(=O)CNCCCOC1=C(O)C(C(O)CO)OC1=O)C(=O)O (centres unmarked) [IV-1, 2-(propyl-glycyl-histidyl-lysine)ascorbic acid] | − | + | ++ | 
O=C1OC(C(O)CO)C(O)=C1OCCCNCC(=O)N1CCC[C@H]1C(=O)N1CC(O)C[C@H]1C(=O)O (some centres unmarked) [IV-3, 2-(propyl-glycyl-prolyl-hydroxyproline)ascorbic acid] | − | + | ++ | 
5-(succinyl-lysyl-threonyl-threonyl-lysyl-serine)ascorbic acid [Compound I-4] | − | + | + | 
NCCCC[C@H](NC(=O)CNC(=O)CCC(=O)OC(CO)C1OC(=O)C(O)=C1O)C(=O)N[C@@H](Cc1c[nH]cn1)C(=O)O (some centres unmarked) [Compound I-2, 5-(succinyl-glycyl-lysyl-histidine)ascorbic acid] | − | + | + | 
NCCCCC(NC(=O)C(Cc1cnc[nH]1)NC(=O)CNC(=O)CCC(=O)OC(CO)C1OC(=O)C(O)=C1O)C(=O)O (centres unmarked) [Compound I-1, 5-(succinyl-glycyl-histidyl-lysine)ascorbic acid] | − | + | + | 
COc1c2occc2cc2ccc(=O)oc12 [Compound 8-MOP, 8-methoxypsoralen] |  |  |  | Evaluation (male Hartley guinea pigs [2]; [4]): Clearly irritating; Mean score (male Hartley guinea pigs [2]; [4]): 2.3; Evaluation (male Hartley guinea pigs [2]; [5]): Extremely irritating; Mean score (male Hartley guinea pigs [2]; [5]): 3.2; Evaluation (male Hartley guinea pigs [2]; [6]): Extremely irritating; Mean score (male Hartley guinea pigs [2]; [6]): 4.0; Evaluation (male Hartley guinea pigs [2]; [7]): Practically non-irritating; Mean score (male Hartley guinea pigs [2]; [7]): 0; Evaluation (male Hartley guinea pigs [2]; [8]): Clearly irritating; Mean score (male Hartley guinea pigs [2]; [8]): 1.4; Evaluation (male Hartley guinea pigs [2]; [9]): Clearly irritating; Mean score (male Hartley guinea pigs [2]; [9]): 1.4
2-(propyl-lysyl-threonyl-threonyl-lysyl-serine(SEQ ID NO:1))ascorbic acid ({ascorbic acid-Propyl}-KTTKS) [IV-4] | − | + | ++ | 
O=C(CCC(=O)OCC(O)C1OC(=O)C(O)=C1O)NCC(=O)N1CCCC1C(=O)N1CC(O)CC1C(=O)O (centres unmarked) [II-3, 6-(succinyl-glycyl-prolyl-hydroxyproline)ascorbic acid] | − | + | + | 
NCCCCC(NC(=O)C(Cc1cnc[nH]1)NC(=O)CNC(=O)CCC(=O)OCC(O)C1OC(=O)C(O)=C1O)C(=O)O (centres unmarked) [II-1, 6-(succinyl-glycyl-histidyl-lysine)ascorbic acid] | − | + | + | pIC50 (mushroom tyrosinase): 3.19
2-(propyl-glycyl-lysyl-histidine)ascorbic acid [IV-2] | − | + | ++ | 
5,6-di(succinyl-glycyl-histidyl-lysine)ascorbic acid [III-1] | − | + | + | 
5,6-di(succinyl-glycyl-lysyl-histidine)ascorbic acid [III-2] | − | + | + | 
O=C(CCC(=O)OCC(OC(=O)CCC(=O)NCC(=O)N1CCCC1C(=O)N1CC(O)CC1C(=O)O)C1OC(=O)C(O)=C1O)NCC(=O)N1CCCC1C(=O)N1CC(O)CC1C(=O)O (centres unmarked) [III-3, 5,6-(succinyl-glycyl-prolyl-hydroxyproline)ascorbic acid] | − | + | + | 
CN(C)CCCN1c2ccccc2Sc2ccc(Cl)cc21 [CP, Chlorpromazine] |  |  |  | Total score/Site No. (male Hartley guinea pigs [2]; male, Hartley, guinea pig, in vivo): 0 + 0/10; Stimulation index (male Hartley guinea pigs [3]; Areas exposed to UVA): 5.8; Stimulation index (male Hartley guinea pigs [3]; Areas not exposed to UVA): 0.0; Photosensitization index (male Hartley guinea pigs [3]; index of UVA irradiation site minus index of non-irradiation site): 5.8
6-(succinyl-glycyl-lysyl-histidine)ascorbic acid [II-2] | − | + | + | pIC50 (mushroom tyrosinase): 3.15
O=C(CCC(=O)OC(CO)C1OC(=O)C(O)=C1O)NCC(=O)N1CCCC1C(=O)N1CC(O)CC1C(=O)O (centres unmarked) [Compound I-3, 5-(succinyl-glycyl-prolyl-hydroxyproline)ascorbic acid] | − | + | + | 
